Experiments:
Assay in all cases: SPR (Biacore), receptor-Fc captured by anti-Fc antibody, ligand injected
BMP6 = target: T1, BMP6 (UniProt P22004 375-513, limits assumed)
T1 sequence (looked up): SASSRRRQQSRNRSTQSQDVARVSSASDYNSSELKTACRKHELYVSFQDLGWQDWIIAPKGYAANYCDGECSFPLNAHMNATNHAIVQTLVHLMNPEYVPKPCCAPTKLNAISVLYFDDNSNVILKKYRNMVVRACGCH
Experimental: (§1) A Biacore™-based binding assay was used to compare ligand binding selectivity of the ActRIIB-Fc:ALK7-Fc heterodimeric complex described above with that of ActRIIB-Fc and ALK7-Fc homodimeric complexes. The ActRIIB-Fc:ALK7-Fc heterodimer, ActRIIB-Fc homodimer, and ALK7-Fc homodimer were independently captured onto the system using an anti-Fc antibody. Ligands were injected and allowed to flow over the captured receptor protein. Results are summarized in the table below, in which ligand off-rates (kd) most indicative of effective ligand traps are denoted by bold text.

activin C = target: T2, activin C (UniProt P55103 237-352)
T2 sequence (looked up): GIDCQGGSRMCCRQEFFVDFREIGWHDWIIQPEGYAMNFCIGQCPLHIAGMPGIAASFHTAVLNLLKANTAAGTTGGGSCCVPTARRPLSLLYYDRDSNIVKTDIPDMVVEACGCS
Experimental: as §1

BMP5 = target: T3, BMP5 (UniProt P22003 317-454, limits assumed)
T3 sequence (looked up): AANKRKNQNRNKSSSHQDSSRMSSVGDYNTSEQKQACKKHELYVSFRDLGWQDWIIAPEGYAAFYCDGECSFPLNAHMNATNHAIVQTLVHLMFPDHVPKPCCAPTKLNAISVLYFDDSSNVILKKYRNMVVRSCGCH
Experimental: as §1

activin B = target: T4, activin B (UniProt P09529 293-407)
T4 sequence (looked up): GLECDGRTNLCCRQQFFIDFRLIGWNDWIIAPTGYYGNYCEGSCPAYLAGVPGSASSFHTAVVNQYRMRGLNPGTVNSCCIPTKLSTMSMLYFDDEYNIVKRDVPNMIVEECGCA
Experimental: as §1

activin A = target: T5, activin A (UniProt P08476 311-426)
T5 sequence (looked up): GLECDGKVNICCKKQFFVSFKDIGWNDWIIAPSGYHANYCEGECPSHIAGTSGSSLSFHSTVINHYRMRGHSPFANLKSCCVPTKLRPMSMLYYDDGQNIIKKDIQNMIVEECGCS
Experimental: as §1

activin AC = target: T6, activin AC (UniProt P08476 311-426; P55103 237-352)
T6 sequence (looked up) 1: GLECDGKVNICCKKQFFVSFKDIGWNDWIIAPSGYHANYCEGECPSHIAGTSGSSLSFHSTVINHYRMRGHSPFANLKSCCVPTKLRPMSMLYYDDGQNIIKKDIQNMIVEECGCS
T6 sequence (looked up) 2: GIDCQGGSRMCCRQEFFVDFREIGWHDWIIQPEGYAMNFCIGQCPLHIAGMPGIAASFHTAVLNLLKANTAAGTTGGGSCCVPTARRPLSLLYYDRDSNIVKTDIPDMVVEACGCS
Experimental: as §1

B1: ActRIIB-Fc homodimer (Fc fusion)
chain: GRGEAETRECIYYNANWELERTNQSGLERCEGEQDKRLHCYASWRNSSGTIELVKKGCWLDDFNCYDRQECVATEENPQVYFCCCEGNFCNERFTHLPEAGGPEVTYEPPPTAPT
notes: also called ActRIIB-Fc homodimeric complex; ActRIIB homodimer; not shown: linker and Fc domain of the homodimer
With B1 the Kd (BMP6) was 0.16 nM, the koff (BMP6) was 0.0039 s⁻¹ and the kon (BMP6) was 2.4e+07 M⁻¹ s⁻¹. For the same binder, the binding result (activin C) was “no binding”, the Kd (BMP5) was 2.9 nM and the koff (BMP5) was 0.075 s⁻¹. The kon (BMP5) was 2.6e+07 M⁻¹ s⁻¹, the Kd (activin B) was 0.008 nM and the koff (activin B) was 0.00016 s⁻¹. The kon (activin B) was 1.5e+07 M⁻¹ s⁻¹, the Kd (activin A) was 0.011 nM and the koff (activin A) was 0.00014 s⁻¹. The kon (activin A) was 1.3e+07 M⁻¹ s⁻¹, the Kd (activin AC) was 0.16 nM and the koff (activin AC) was 0.0031 s⁻¹. For the same binder, the kon (activin AC) was 2e+07 M⁻¹ s⁻¹.

From patent publication US20220289852A1 (ACCELERON PHARMA, published 2022)
